The supplement of paper PMC12764529
± gives the half width of the 95% confidence interval.

Key:
[1] = folding stability dG unfold from trypsin proteolysis; higher = more stable
Procedure, shortened: (§1)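 Unfolding free energy was derived, per protease or combined, against a sequence-predicted unfolded-state K50 and a shared folded-state K50, starting from K50 inferred by Bayesian fitting of sequencing counts. Digestion with trypsin and chymotrypsin was carried out on designed mini-proteins under 80 residues without cysteine in a PA-tagged cDNA display construct. Only designs with AlphaFold2 dimer inter-PAE above 15 were kept.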

[2] = folding stability dG unfold (combined trypsin and chymotrypsin); higher = more stable
Procedure, shortened: as §1

[3] = folding stability dG unfold from chymotrypsin proteolysis; higher = more stable
Procedure, shortened: as §1

| Sequence | folding stability dG unfold [1] [kcal/mol] | folding stability dG unfold [2] [kcal/mol] | folding stability dG unfold [3] [kcal/mol] |
| --- | --- | --- | --- |
| SYSTSTVTVPVAADEIDKAKEIAKELAEKLPPNSRVTFNMPAPDGSTFTVEVTVNPDGTITVTVSDSLPAVS [r1_350_JUSTAS] | 1.55 ± 0.041 | 1.34 ± 0.087 | 0.986 ± 0.13 |
| SYTLEFEDITLKPVEPGTKISIPGYVKYDGVLYKVTEVTYDPEKGTITITIKVEPEGKPKTLTITIPIPPPS [r1_47_JUSTAS] | 2.24 ± 0.11 | 2.06 ± 0.19 | 1.85 ± 0.086 |
| TTVTTPKNGLININLTDKKGNKYTFTAPVKDPVETLEKLKKLIKDLFPEYKDVKVKVVSVDGINIKVVVDIS [r1_389_TrMRF] | 2.66 ± 0.11 | 3.26 ± 0.1 | 3.57 ± 0.061 |
| TWTFTIMIPIKPEIREALDSGKPLPIEELVDWIKDEIARMFGFKDVTVKGIEIHPDPNGEIMVMVTIEFKPS [r1_290_TrROS] | 4.29 ± 0.28 | 4.62 ± 0.12 | 4.64 ± 0.12 |
| WKIVEITDIEPDPDGWLEIKITIEPPEPGDPIKIMIFHPNQFHEFEIDPESPEIEIRIPPGFDNLHIFIYVS [r1_428_TrROS] | 2.82 ± 0.24 | 3.9 ± 0.57 | 4.42 ± 0.2 |
